Paper PMC10539794, “Structural polymorphism and substrate promiscuity of a ribosome-associated molecular chaperone” (Magnetic resonance, 2021)
Where no end group is shown, it is not given here.

Assays:
[1] = target: FITC-labeled IcdH3 peptide (ICDH 177-194); assay: fluorescence polarisation; FITC-labeled peptide at 1 µM, TF serially diluted (0.1-1000 µM); 20 mM Tris pH 7.4, 100 mM NaCl; one-site binding model; apparent constants
[2] = target: FITC-labeled IcdH2 peptide (ICDH 125-137); assay: as above
[3] = target: FITC-labeled IcdH1 peptide (ICDH 55-70); assay: as above
[4] = target: T1, E. coli TF (trigger factor), full-length (Escherichia coli, UniProt P0A850); assay: Fluorescence polarization analysis of TF binding to FITC-labeled peptides; conditions: N-terminally FITC-labeled peptide 1 µM, full-length TF 0.1-1000 µM, 20 mM Tris pH 7.4, 100 mM NaCl, ex 485 nm / em 535 nm, one-site binding model, errors from three technical replicates
T1 construct: His6 (N); made in house
T1 sequence (P0A850 1-432): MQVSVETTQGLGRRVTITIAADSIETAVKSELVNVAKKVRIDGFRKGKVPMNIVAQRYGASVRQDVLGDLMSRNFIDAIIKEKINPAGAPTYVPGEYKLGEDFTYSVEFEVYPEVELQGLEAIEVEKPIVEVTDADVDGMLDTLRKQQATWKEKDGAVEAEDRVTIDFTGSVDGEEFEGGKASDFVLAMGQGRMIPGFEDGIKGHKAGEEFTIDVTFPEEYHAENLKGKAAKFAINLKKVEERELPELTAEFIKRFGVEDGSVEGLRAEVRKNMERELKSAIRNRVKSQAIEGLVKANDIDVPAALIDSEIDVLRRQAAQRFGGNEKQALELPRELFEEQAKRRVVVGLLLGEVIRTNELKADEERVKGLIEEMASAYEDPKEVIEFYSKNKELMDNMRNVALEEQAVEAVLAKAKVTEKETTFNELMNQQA
Description: A fraction of all these peptides were subsequently labeled with FITC at the N-terminus for fluorescence polarization (FP) measurements. […] For FP analysis, FITC-labeled peptides were dissolved in DMSO to yield a stock solution of 4 M. They were subsequently diluted by 20 mM Tris (pH 7.4) and 100 mM NaCl to yield a molar concentration of 100 µM . 200 µL of TF variants was transferred into a 96-well plate followed by serial dilution by the same buffer in a 1:1 dilution ratio. The final protein concentrations were between 0.1 and 1000 µM . After serial dilution, 50 µL of protein solutions of various protein concentrations was transferred to new wells by an eight-channel pipette and was mixed with FITC-labeled peptide solution to yield a peptide concentration of 1 µM . FP measurements of these samples were carried out using a plate reader (Paradigm, Molecular Device, USA) with an excitation wavelength of 485 nm and an emission wavelength of 535 nm. The integration time was set to 250 ms.

| Kd [1] | Kd [2] | Kd [3] | Substance | Kd [4] |
| --- | --- | --- | --- | --- |
| 132 µM | 8.6 µM | 28.2 µM | E. coli trigger factor (TF), full length (from UniProt P0A850 1-432) (natural protein) |  |
|  |  |  | KAYKGERKISWMEIYT [IcdH1] | 28.2 ± 1 µM |
|  |  |  | YICLRPVRYYQGT [IcdH2] | 8.6 ± 0.3 µM |
|  |  |  | KFLREEMGVKKIRFPEHC [IcdH3] | 132 ± 9 µM |
